Measured values published in patent US6403637.

Key:
[1] = target: collagenase-3 dual receptor system on UMR 106-01 cells (collagenase-3 receptor and low density lipoprotein receptor-related protein); assay: competition with ^125I mouse collagenase-3 on UMR-106-01 cells; 200-, 400- and 800-fold excess of competitor
[2] = target: collagenase-3 receptor and low density lipoprotein receptor-related protein on MEF-1 cells; assay: competition with ^125I mouse collagenase-3 on MEF-1 cells; 200-, 400- and 800-fold excess of competitor
[3] = target: collagenase-3 receptor (170 kDa protein) of mouse embryo fibroblasts MEF-1 and MEF-2 (mouse) (UniProt Q64449); assay: competition with ^125I mouse collagenase-3 on MEF-2 (LRP null) cells; 200-, 400- and 800-fold excess of competitor
Chain of collagenase-3 receptor (170 kDa protein) of mouse embryo fibroblasts MEF-1 and MEF-2 (mouse) (Q64449 31-1479): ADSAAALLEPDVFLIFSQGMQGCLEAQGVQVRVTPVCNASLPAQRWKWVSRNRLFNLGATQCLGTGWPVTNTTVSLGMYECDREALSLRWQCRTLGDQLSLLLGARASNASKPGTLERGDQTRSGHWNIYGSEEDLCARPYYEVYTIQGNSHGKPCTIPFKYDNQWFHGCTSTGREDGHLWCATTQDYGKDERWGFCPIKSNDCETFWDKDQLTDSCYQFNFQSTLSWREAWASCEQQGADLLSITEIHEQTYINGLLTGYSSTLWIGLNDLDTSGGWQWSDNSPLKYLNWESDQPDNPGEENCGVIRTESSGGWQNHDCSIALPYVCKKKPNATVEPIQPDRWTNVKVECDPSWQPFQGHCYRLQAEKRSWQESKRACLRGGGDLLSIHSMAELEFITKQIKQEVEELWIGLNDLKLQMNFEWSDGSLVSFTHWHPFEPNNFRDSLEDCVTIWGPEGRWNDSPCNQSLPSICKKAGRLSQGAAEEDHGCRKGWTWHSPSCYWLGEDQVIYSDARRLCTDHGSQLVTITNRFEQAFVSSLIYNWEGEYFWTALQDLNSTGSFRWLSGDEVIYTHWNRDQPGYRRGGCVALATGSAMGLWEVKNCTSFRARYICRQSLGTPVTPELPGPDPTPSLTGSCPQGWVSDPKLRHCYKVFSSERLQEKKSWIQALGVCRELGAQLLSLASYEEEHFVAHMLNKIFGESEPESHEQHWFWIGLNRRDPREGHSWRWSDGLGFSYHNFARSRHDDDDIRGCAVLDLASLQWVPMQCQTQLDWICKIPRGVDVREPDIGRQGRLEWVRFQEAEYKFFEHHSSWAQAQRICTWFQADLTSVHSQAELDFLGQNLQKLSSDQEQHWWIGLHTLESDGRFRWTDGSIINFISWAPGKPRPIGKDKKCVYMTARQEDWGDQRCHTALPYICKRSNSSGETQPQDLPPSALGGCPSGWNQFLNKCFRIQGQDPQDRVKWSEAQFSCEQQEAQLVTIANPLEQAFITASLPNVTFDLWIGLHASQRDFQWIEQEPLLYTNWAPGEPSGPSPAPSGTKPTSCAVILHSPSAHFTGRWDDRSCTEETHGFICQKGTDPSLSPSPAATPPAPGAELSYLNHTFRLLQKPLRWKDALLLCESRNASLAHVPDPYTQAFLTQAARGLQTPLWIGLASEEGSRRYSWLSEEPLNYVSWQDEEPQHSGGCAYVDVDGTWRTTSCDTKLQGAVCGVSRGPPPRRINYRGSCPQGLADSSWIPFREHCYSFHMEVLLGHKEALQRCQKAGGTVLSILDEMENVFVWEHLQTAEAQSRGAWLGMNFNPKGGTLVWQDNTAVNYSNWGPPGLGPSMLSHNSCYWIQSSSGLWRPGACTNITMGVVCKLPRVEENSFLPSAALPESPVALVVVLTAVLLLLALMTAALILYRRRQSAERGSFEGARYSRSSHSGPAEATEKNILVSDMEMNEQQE

[4] = target: low density lipoprotein receptor-related protein of human chondrocytes (UniProt Q07954)
[5] = target: low density lipoprotein receptor-related protein of human chondrocytes (UniProt Q07954); assay: cell-based or functional assay
[6] = target: collagenase-3 dual receptor system on UMR 106-01 cells (collagenase-3 receptor and low density lipoprotein receptor-related protein); assay: competition with ^125I mouse collagenase-3 on UMR cells
[7] = target: rat collagenase-3 receptor (170 kDa protein) of UMR 106-01 rat osteosarcoma cells and other rat cells (rat); assay: ^125I-labeled ligand at 10 nM on UMR cells, triplicate wells
Chain of rat collagenase-3 receptor (170 kDa protein) of UMR 106-01 rat osteosarcoma cells and other rat cells (rat) (Q4TU93 31-1480): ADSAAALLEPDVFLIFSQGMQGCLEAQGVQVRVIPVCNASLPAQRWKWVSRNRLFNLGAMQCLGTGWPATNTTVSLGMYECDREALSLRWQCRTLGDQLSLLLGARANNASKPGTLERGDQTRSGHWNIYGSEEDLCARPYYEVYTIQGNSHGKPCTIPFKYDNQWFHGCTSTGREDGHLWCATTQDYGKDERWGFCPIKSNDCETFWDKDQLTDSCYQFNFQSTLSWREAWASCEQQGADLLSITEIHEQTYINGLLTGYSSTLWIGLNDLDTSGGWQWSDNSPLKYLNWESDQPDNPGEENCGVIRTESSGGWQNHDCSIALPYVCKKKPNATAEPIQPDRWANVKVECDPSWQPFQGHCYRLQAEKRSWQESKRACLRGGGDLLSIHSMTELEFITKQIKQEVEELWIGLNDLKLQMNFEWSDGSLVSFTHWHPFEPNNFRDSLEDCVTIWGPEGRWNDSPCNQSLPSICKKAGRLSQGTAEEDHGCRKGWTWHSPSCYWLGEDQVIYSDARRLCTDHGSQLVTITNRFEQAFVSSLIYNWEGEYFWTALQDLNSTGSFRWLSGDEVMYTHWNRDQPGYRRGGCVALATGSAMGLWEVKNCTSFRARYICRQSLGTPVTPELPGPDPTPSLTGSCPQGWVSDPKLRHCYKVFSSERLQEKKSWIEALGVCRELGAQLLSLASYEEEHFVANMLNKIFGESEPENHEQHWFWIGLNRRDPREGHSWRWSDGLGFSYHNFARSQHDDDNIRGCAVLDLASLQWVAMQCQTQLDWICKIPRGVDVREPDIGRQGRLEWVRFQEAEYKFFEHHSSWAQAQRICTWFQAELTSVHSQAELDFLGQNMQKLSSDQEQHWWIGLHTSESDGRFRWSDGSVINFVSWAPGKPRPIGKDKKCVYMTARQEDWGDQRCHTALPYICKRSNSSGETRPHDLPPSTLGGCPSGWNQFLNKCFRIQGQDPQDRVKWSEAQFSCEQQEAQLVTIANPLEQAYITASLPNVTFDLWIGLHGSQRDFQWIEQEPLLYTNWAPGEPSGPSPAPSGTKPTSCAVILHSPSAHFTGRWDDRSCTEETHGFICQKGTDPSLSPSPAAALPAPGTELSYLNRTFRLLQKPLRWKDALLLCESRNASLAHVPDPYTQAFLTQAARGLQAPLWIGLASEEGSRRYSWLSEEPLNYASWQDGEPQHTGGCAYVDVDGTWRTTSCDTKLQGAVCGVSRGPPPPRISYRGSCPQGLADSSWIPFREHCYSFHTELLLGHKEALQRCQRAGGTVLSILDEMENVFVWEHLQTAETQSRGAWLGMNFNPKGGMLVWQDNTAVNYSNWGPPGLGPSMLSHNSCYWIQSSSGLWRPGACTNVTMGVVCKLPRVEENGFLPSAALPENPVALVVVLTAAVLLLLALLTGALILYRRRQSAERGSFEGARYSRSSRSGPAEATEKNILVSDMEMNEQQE

[8] = target: rat collagenase-3 receptor (170 kDa protein) of UMR 106-01 rat osteosarcoma cells and other rat cells (rat); assay: ^125I-labeled ligand at 8 nM on UMR cells, triplicate wells

Chain of human fibroblast collagenase-1 (MMP-1) (P03956 100-469): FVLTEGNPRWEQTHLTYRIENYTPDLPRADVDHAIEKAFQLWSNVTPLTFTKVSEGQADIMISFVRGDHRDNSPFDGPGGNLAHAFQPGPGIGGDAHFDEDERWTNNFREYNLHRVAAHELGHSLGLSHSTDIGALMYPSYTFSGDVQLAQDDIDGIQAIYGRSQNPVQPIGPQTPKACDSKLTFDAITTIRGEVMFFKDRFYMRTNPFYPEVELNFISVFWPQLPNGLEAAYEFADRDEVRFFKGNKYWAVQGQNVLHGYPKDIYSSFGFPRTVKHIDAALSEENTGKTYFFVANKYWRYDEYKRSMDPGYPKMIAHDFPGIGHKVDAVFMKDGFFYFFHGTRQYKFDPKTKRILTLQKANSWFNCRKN
Chain of human 72 kDa gelatinase (MMP-2) (P08253 30-660 limits assumed): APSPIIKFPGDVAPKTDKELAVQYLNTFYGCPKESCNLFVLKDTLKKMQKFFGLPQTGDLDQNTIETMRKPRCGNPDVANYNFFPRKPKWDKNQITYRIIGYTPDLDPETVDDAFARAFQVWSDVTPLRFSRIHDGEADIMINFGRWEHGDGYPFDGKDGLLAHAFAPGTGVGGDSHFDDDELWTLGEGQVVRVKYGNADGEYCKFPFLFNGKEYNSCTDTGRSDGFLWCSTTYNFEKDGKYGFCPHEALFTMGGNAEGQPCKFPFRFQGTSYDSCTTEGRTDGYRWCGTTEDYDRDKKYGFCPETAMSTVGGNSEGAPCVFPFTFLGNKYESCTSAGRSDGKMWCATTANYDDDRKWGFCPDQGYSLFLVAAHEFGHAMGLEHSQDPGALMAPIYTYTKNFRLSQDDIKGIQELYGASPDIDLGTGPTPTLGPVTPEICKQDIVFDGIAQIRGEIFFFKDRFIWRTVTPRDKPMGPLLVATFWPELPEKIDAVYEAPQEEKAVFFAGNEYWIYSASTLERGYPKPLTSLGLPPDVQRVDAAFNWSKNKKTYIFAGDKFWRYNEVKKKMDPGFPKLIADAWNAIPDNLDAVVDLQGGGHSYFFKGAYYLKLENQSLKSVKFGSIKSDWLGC
Chain of human 92 kDa gelatinase (MMP-9) (P14780 20-707 limits assumed): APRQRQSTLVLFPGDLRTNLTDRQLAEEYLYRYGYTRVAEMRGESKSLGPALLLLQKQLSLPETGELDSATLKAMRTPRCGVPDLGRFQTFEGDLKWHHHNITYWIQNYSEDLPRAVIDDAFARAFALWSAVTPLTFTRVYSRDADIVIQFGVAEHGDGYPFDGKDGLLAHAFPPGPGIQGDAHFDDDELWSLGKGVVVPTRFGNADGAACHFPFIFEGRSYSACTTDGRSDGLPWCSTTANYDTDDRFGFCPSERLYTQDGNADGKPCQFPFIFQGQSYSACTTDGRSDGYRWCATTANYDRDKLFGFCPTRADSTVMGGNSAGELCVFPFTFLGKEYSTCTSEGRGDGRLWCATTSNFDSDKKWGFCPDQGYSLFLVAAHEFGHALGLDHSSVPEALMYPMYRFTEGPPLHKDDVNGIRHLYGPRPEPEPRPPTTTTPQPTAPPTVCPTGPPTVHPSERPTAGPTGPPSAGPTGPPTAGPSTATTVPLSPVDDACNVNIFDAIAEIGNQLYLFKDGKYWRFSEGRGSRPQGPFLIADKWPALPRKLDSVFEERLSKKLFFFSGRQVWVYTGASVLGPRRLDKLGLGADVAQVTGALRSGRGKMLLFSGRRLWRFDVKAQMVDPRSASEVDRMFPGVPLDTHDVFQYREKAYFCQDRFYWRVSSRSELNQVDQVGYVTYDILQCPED

Substance | percent of mouse collagenase-3 binding [1] [%] | percent of mouse collagenase-3 binding [2] [%] | also measured
^125I collagenase-3 of Example 3 |  |  | reduction of collagenase-3 internalization by RAP in osteoarthritis chondrocytes [4]: by 74.3%
^125I collagenase-3 of Example 3 (enzyme) |  |  | inhibition of collagenase-3 internalization by receptor-associated protein in control human chondrocytes [5]: 88.2%
human 92 kDa gelatinase (MMP-9) (from UniProt P14780 20-707) (enzyme) |  |  | Specific binding (fmol/2.6 × 10^5 cells) [7]: 3.9
recombinant mouse collagenase-3 (mMMP-13, residues 1-472) (from UniProt P33435 20-472) (enzyme) | 100 | 100 | 
human fibroblast collagenase-1 (MMP-1) (from UniProt P03956 100-469) (enzyme) | 0 |  | Specific binding (fmol/2.6 × 10^5 cells) [8]: 0.1
HM(166-228)/H chimeric collagenase (from UniProt P03956 20-160; P33435 166-228; P03956 224-408) (enzyme) | 67.8 | 80.8 | percent of mouse collagenase-3 binding [3]: 97.2%
human stromelysin-1 (MMP-3) (from UniProt P08254 18-477) (enzyme) |  |  | Specific binding (fmol/2.6 × 10^5 cells) [8]: 0
human 72 kDa gelatinase (MMP-2) (from UniProt P08253 30-660) (enzyme) |  |  | Specific binding (fmol/2.6 × 10^5 cells) [8]: 0

The next lines start with results.

percent of mouse collagenase-3 binding [1] [%] | percent of mouse collagenase-3 binding [2] [%] | Substance | also measured
95.7 | 84.4 | HM/M(141-472) chimeric collagenase (from UniProt P03956 20-135; P33435 141-472) (enzyme) | 
95.5 | 99.1 | MH(213-267)/M chimeric collagenase (exon 5 replacement) (from UniProt P33435 20-212; P03956 213-267; P33435 268-472) (enzyme) | percent of mouse collagenase-3 binding [3]: 98.7%
89.9 | 94.3 | HM(141-228)/H chimeric collagenase (from UniProt P03956 20-135; P33435 141-228; P03956 224-408) (enzyme) | percent of mouse collagenase-3 binding [3]: 75.1%
16.5 | 2.2 | H/M(229-472) chimeric collagenase (from UniProt P03956 20-223; P33435 229-472) (enzyme) | 
85.3 | 85.9 | M(1-228)/H chimeric collagenase (from UniProt P33435 20-228; P03956 224-408) (enzyme) | competition efficiency compared to full-length collagenase-3 [6]: > 90%; percent of mouse collagenase-3 binding [3]: 41.9%
100 | 100 | C-terminally truncated mouse collagenase-3, M(1-265) (from UniProt P33435 20-265) (enzyme) | 
